Series [1] addresses Glucoamylase PE001: variant of the Penicillium oxalicum glucoamylase having a K79V substitution (Penicillium oxalicum). The experiment in a line: cell-based or functional assay.
Series [2] has as its target wild type Penicillium oxalicum glucoamylase (Penicillium oxalicum). The experiment in a line: cell-based or functional assay.
Series [3] relates to T1, wild type Penicillium oxalicum glucoamylase.
T1 sequence: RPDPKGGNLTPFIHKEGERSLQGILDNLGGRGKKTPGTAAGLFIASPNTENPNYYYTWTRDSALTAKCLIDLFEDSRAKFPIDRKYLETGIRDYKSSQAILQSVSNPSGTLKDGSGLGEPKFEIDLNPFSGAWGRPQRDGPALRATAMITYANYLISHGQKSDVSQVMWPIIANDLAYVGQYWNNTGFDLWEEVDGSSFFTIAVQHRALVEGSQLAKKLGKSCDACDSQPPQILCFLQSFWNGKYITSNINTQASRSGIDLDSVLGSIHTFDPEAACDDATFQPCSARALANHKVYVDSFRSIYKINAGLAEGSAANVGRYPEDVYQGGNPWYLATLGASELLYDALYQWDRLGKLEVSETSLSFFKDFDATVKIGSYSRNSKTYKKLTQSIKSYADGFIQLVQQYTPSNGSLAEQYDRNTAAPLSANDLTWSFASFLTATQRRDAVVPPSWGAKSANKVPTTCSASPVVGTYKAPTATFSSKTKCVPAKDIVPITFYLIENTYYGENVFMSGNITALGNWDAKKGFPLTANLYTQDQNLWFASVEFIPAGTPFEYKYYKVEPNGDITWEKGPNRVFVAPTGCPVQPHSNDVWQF

The target in series [4] is T2, wild type Penicillium oxalicum glucoamylase.
T2 chain: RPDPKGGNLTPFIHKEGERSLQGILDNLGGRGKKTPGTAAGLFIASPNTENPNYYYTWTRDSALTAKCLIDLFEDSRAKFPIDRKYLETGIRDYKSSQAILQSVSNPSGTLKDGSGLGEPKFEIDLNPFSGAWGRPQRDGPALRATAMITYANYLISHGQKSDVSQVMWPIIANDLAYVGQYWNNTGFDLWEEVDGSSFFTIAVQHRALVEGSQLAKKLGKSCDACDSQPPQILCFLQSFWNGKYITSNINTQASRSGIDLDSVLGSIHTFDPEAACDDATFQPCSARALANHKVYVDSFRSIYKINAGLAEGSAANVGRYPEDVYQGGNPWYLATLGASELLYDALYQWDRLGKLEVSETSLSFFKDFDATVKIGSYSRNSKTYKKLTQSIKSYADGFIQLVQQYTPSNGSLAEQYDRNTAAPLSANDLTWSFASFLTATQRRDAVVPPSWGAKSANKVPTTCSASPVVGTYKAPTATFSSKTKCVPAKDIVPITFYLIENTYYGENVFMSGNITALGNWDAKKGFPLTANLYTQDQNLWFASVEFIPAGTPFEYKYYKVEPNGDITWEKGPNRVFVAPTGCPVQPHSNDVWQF

Like-named read-outs stand apart in the source and are kept apart here.

For the molecule aspergillopepsin I (enzyme), in series [1], the intact glucoamylase (ca. 70 kDa), SDS-PAGE after protease treatment overnight at 4° C. came to 100% and the intact glucoamylase (ca. 70 kDa), SDS-PAGE after protease treatment overnight at 32° C. is 100%. In series [2], this molecule registered an intact glucoamylase (ca. 70 kDa), SDS-PAGE after protease treatment overnight at 4° C. of 100% and an intact glucoamylase (ca. 70 kDa), SDS-PAGE after protease treatment overnight at 32° C. of 90%.

As to aspergillopepsin I, the “cleaved glucoamylase (ca. 60 kDa), SDS-PAGE after protease treatment overnight at 32° C.” value in series [3] is on record as 10%.

B1: aorsin (protein)
chain: GLNVTNCDQLITPECIRALYKIPSARAAPHPNNSLGIFEEGDYYAQEDLDLFFKTFAKDIPQGTHPIPAFIDGAEAPVPVTKAGGESDLDFELAYPIVHPQSITLYQTDDANWASNTTGFLNTFLDALDGSYCTYCAYGECGNDPSLDPVYPDDAGYDGQLMCGVFKPTNVISVSYGEQENDLPANYQQRQCMEFLKLGLQGVSVLFASGDNGVAGPPGDGNSVNGCLNNGTVFSPAFPNSCPYITNVGATKVYPGYTVSQPESAVYDPDGLYSYASGGGFSNIYPIPDYQAEAVATYFKDHNPPYPYYEGAENLGKNGGLYNRLGRGYPDVAANGDNIAVFNGGEFGSSGGTSASTPIFASIINRIIDERLAVGKGPVGFINPVLYKNPSVLNDITNGTNPGCGTDGFSTAPGWDPATGLGTPNYPKMLKLWLDLP
With B1, in series [4], the “cleaved glucoamylase (ca. 60 kDa), SDS-PAGE after protease treatment overnight at 4° C.” value came to 60% and the “cleaved glucoamylase (ca. 60 kDa), SDS-PAGE after protease treatment overnight at 32° C.” value is recorded as 90%. Also, in series [1], the intact glucoamylase (ca. 70 kDa), SDS-PAGE after protease treatment overnight at 4° C. came to 100% and the intact glucoamylase (ca. 70 kDa), SDS-PAGE after protease treatment overnight at 32° C. came to 100%. In series [2], this molecule gave an intact glucoamylase (ca. 70 kDa), SDS-PAGE after protease treatment overnight at 4° C. of 40% and an intact glucoamylase (ca. 70 kDa), SDS-PAGE after protease treatment overnight at 32° C. of 10%.
